From publication PMC4856418, “Inactive mutants of human pyridoxine 5′‐phosphate oxidase: a possible role for a noncatalytic pyridoxal 5′‐phosphate tight binding site” (FEBS Open Bio, 2016)

How the values were obtained:
Experiment in all cases: fluorescence polarisation; 1 μM FMI-labeled hPNPO in a 96-well plate, B6 enzymes added at 0 to 20 μM, incubated at 25 °C for 5 h; excitation 495 nm, emission 535 nm; curves fitted to a simple 1:1 model
Settings in all cases: both partners purified
[1] = target: T1, E. coli aspartate aminotransferase (eAATase) (E. coli, UniProt P00509 1-396)
T1 construct: E. coli aspartate aminotransferase
T1 sequence (looked up): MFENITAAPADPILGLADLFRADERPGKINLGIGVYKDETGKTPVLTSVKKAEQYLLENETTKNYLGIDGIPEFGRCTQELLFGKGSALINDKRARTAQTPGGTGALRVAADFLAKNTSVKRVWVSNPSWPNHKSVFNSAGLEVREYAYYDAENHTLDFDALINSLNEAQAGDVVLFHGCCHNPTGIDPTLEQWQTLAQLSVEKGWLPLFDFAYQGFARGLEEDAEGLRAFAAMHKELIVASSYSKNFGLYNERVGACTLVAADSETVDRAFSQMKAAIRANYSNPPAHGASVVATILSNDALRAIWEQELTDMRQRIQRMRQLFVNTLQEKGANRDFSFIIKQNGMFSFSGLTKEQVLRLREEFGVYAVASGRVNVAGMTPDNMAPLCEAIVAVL

[2] = target: T2, E. coli serine hydroxymethyltransferase (eSHMT) (E. coli, UniProt P0A825 1-417)
T2 construct: E. coli serine hydroxymethyltransferase; also called E. coli SHMT
T2 sequence (looked up): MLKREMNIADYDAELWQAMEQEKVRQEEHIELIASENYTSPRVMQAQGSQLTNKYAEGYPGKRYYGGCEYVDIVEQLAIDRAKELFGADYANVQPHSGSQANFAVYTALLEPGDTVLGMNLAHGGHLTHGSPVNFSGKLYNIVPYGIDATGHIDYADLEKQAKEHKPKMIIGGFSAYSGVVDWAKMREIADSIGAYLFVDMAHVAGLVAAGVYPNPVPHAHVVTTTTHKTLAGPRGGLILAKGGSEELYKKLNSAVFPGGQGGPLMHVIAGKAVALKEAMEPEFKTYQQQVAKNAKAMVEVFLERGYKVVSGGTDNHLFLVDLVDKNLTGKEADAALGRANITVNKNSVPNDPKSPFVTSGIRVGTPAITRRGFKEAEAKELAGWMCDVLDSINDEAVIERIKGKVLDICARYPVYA

[3] = target: T3, rabbit cytosolic serine hydroxymethyltransferase (rcSHMT) (rabbit, UniProt P07511 1-484)
T3 construct: rabbit cytosolic serine hydroxymethyltransferase; In the PLP transfer experiments the apo form (PLP removed with D-alanine) was used; the fluorescence polarization text names rcSHMT without saying apo or holo; also called apo-rcSHMT; apo-SHMT
T3 sequence (looked up): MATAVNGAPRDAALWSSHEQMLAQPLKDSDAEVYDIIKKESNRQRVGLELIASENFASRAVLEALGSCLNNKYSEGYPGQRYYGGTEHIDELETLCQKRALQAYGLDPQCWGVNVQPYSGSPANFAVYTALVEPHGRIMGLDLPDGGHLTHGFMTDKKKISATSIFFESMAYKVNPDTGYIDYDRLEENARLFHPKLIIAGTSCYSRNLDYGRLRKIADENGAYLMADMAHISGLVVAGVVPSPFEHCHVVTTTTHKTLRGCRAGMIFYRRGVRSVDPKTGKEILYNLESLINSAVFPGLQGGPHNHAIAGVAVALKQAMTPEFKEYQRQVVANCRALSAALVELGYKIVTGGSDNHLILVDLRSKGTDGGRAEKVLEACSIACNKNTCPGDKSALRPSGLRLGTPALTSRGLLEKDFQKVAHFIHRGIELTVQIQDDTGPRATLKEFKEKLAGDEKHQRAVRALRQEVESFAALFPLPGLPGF

[4] = target: T4, E. coli L-threonine aldolase (eL-TA) (E. coli, UniProt P75823 1-333)
T4 construct: E. coli L-threonine aldolase
T4 sequence (looked up): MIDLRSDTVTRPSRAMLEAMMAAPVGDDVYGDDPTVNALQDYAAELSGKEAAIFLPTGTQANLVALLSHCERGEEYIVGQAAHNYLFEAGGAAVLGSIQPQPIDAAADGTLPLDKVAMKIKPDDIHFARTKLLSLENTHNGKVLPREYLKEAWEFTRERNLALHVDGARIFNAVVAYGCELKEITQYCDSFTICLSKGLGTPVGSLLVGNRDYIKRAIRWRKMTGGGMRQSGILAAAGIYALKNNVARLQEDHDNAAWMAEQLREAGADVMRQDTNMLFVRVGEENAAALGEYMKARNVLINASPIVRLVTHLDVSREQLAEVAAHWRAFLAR

B1: wild-type human pyridoxine 5′-phosphate oxidase (hPNPO) (enzyme)
chain: MTCWLRGVTATFGRPAEWPGYLSHLCGRSAAMDLGPMRKSYRGDREAFEETHLTSLDPVKQFAAWFEEAVQCPDIGEANAMCLATCTRDGKPSARMLLLKGFGKDGFRFFTNFESRKGKELDSNPFASLVFYWEPLNRQVRVEGPVKKLPEEEAECYFHSRPKSSQIGAVVSHQSSVIPDREYLRKKNEELEQLYQDQEVPKPKSWGGYVLYPQVMEFWQGQTNRLHDRIVFRRGLPTGDSPLGPMTHRGEEDWLYERLAP
modifications: labelled with fluorescein 5-maleimide (FMI) in the fluorescence polarization assay; labelled residues not stated
notes: human pyridoxine 5′-phosphate oxidase, wild type; FMI-labelled in the fluorescence polarization assay; also called FMI-labeled hPNPO; FMI-tagged hPNPO
Kd [1]: 300 nM | Kd [2]: 1700 nM | Kd [3]: 800 nM | Kd [4]: 12.3 µM
